{"source": "the supplement of paper PMC9112550", "about": "“Optimization of the antimicrobial peptide Bac7 by deep mutational scanning” (BMC Biology, 2022);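 note: peptides expressed intracellularly from a pBAD plasmid library in pooled LB shake-flask culture, induced with 0.3% L-arabinose, DNA abundance read by NGS, three biological replicates, DESeq2 with apeglm shrinkage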", "data": [{"test_system": "Escherichia coli TOP10", "experiment": "shrunken log2 fold change of peptide-encoding DNA abundance (4.5 h post-induction vs induction); higher = less antimicrobial activity (less host growth inhibition)", "conditions": "time post-induction: 4.5 h; library: site-saturation at positions 5, 18, 19, 20", "values": [{"sequence": "RRIRIRPPRLPRPRPRPYERPRP", "shrunken log2 fold change": -0.023}, {"sequence": "RRIRIRPPRLPRPRPRPYETPRP", "shrunken log2 fold change": -0.0282}, {"sequence": "RRIRIRPPRLPRPRPRPYFEPRP", "shrunken log2 fold change": -1.2}, {"sequence": "RRIRIRPPRLPRPRPRPYFKPRP", "shrunken log2 fold change": -0.511}, {"sequence": "RRIRIRPPRLPRPRPRPYFNPRP", "shrunken log2 fold change": -1.29}, {"sequence": "RRIRIRPPRLPRPRPRPYGSPRP", "shrunken log2 fold change": -0.126}, {"sequence": "RRIRIRPPRLPRPRPRPYICPRP", "shrunken log2 fold change": -0.393}, {"sequence": "RRIRIRPPRLPRPRPRPYIKPRP", "shrunken log2 fold change": -0.684}, {"sequence": "RRIRIRPPRLPRPRPRPYLVPRP", "shrunken log2 fold change": -0.289}, {"sequence": "RRIRIRPPRLPRPRPRPYMGPRP", "shrunken log2 fold change": -0.579}, {"sequence": "RRIRIRPPRLPRPRPRPYMNPRP", "shrunken log2 fold change": -0.712}, {"sequence": "RRIRIRPPRLPRPRPRPYNFPRP", "shrunken log2 fold change": -0.99}, {"sequence": "RRIRIRPPRLPRPRPRPYPAPRP", "shrunken log2 fold change": -0.331}, {"sequence": "RRIRIRPPRLPRPRPRPYPEPRP", "shrunken log2 fold change": -0.0522}, {"sequence": "RRIRIRPPRLPRPRPRPYRIPRP", "shrunken log2 fold change": -0.485}, {"sequence": "RRIRIRPPRLPRPRPRPYSGPRP", "shrunken log2 fold change": 0.00727}, {"sequence": "RRIRIRPPRLPRPRPRPYSQPRP", "shrunken log2 fold change": -0.269}, {"sequence": "RRIRIRPPRLPRPRPRPYSVPRP", "shrunken log2 fold change": -0.07}, {"sequence": "RRIRIRPPRLPRPRPRPYVSPRP", "shrunken log2 fold change": -0.518}, {"sequence": "RRIRIRPPRLPRPRPRPYWQPRP", "shrunken log2 fold change": -0.774}, {"sequence": "RRIRIRPPRLPRPRPRPYYHPRP", "shrunken log2 fold change": -0.839}, {"sequence": "RRIRKRPPRLPRPRPRPAAIPRP", "shrunken log2 fold change": 0.255}, {"sequence": "RRIRKRPPRLPRPRPRPACAPRP", "shrunken log2 fold change": 1}, {"sequence": "RRIRKRPPRLPRPRPRPACCPRP", "shrunken log2 fold change": 0.192}, {"sequence": "RRIRKRPPRLPRPRPRPACKPRP", "shrunken log2 fold change": 0.0609}, {"sequence": "RRIRKRPPRLPRPRPRPACNPRP", "shrunken log2 fold change": -0.0224}, {"sequence": "RRIRKRPPRLPRPRPRPAECPRP", "shrunken log2 fold change": 0.33}, {"sequence": "RRIRKRPPRLPRPRPRPAEPPRP", "shrunken log2 fold change": 0.429}, {"sequence": "RRIRKRPPRLPRPRPRPAFEPRP", "shrunken log2 fold change": 0.158}, {"sequence": "RRIRKRPPRLPRPRPRPAGGPRP", "shrunken log2 fold change": 0.435}, {"sequence": "RRIRKRPPRLPRPRPRPAGKPRP", "shrunken log2 fold change": 0.582}, {"sequence": "RRIRKRPPRLPRPRPRPAGQPRP", "shrunken log2 fold change": 0.0284}, {"sequence": "RRIRKRPPRLPRPRPRPAHNPRP", "shrunken log2 fold change": 0.473}, {"sequence": "RRIRKRPPRLPRPRPRPAHQPRP", "shrunken log2 fold change": 0.162}, {"sequence": "RRIRKRPPRLPRPRPRPAKFPRP", "shrunken log2 fold change": 0.602}, {"sequence": "RRIRKRPPRLPRPRPRPAKHPRP", "shrunken log2 fold change": 0.0854}, {"sequence": "RRIRKRPPRLPRPRPRPALYPRP", "shrunken log2 fold change": 0.453}, {"sequence": "RRIRKRPPRLPRPRPRPANDPRP", "shrunken log2 fold change": 0.0931}, {"sequence": "RRIRKRPPRLPRPRPRPAPGPRP", "shrunken log2 fold change": 0.637}, {"sequence": "RRIRKRPPRLPRPRPRPAPHPRP", "shrunken log2 fold change": 0.79}, {"sequence": "RRIRKRPPRLPRPRPRPAPQPRP", "shrunken log2 fold change": 0.937}, {"sequence": "RRIRKRPPRLPRPRPRPAPVPRP", "shrunken log2 fold change": 0.668}, {"sequence": "RRIRKRPPRLPRPRPRPAQAPRP", "shrunken log2 fold change": 0.281}, {"sequence": "RRIRKRPPRLPRPRPRPAQCPRP", "shrunken log2 fold change": -0.0613}, {"sequence": "RRIRKRPPRLPRPRPRPAQLPRP", "shrunken log2 fold change": 0.0282}, {"sequence": "RRIRKRPPRLPRPRPRPAQPPRP", "shrunken log2 fold change": 0.764}, {"sequence": "RRIRKRPPRLPRPRPRPARAPRP", "shrunken log2 fold change": 0.739}, {"sequence": "RRIRKRPPRLPRPRPRPASPPRP", "shrunken log2 fold change": 0.122}, {"sequence": "RRIRKRPPRLPRPRPRPAWVPRP", "shrunken log2 fold change": 0.483}, {"sequence": "RRIRKRPPRLPRPRPRPAYYPRP", "shrunken log2 fold change": -0.0726}, {"sequence": "RRIRKRPPRLPRPRPRPCANPRP", "shrunken log2 fold change": 0.232}, {"sequence": "RRIRKRPPRLPRPRPRPCCYPRP", "shrunken log2 fold change": 0.0681}, {"sequence": "RRIRKRPPRLPRPRPRPCDGPRP", "shrunken log2 fold change": 0.00408}, {"sequence": "RRIRKRPPRLPRPRPRPCDQPRP", "shrunken log2 fold change": -0.0132}, {"sequence": "RRIRKRPPRLPRPRPRPCEAPRP", "shrunken log2 fold change": 0.277}, {"sequence": "RRIRKRPPRLPRPRPRPCEPPRP", "shrunken log2 fold change": 0.553}, {"sequence": "RRIRKRPPRLPRPRPRPCFPPRP", "shrunken log2 fold change": 0.123}, {"sequence": "RRIRKRPPRLPRPRPRPCFWPRP", "shrunken log2 fold change": 0.42}, {"sequence": "RRIRKRPPRLPRPRPRPCGMPRP", "shrunken log2 fold change": 0.858}, {"sequence": "RRIRKRPPRLPRPRPRPCIFPRP", "shrunken log2 fold change": -0.0101}, {"sequence": "RRIRKRPPRLPRPRPRPCIHPRP", "shrunken log2 fold change": -0.124}, {"sequence": "RRIRKRPPRLPRPRPRPCKCPRP", "shrunken log2 fold change": 0.0183}, {"sequence": "RRIRKRPPRLPRPRPRPCKEPRP", "shrunken log2 fold change": -0.0743}, {"sequence": "RRIRKRPPRLPRPRPRPCKFPRP", "shrunken log2 fold change": 0.142}, {"sequence": "RRIRKRPPRLPRPRPRPCKLPRP", "shrunken log2 fold change": -0.144}, {"sequence": "RRIRKRPPRLPRPRPRPCLCPRP", "shrunken log2 fold change": -0.138}, {"sequence": "RRIRKRPPRLPRPRPRPCNAPRP", "shrunken log2 fold change": -0.0429}, {"sequence": "RRIRKRPPRLPRPRPRPCNDPRP", "shrunken log2 fold change": -0.0241}, {"sequence": "RRIRKRPPRLPRPRPRPCNNPRP", "shrunken log2 fold change": -0.474}, {"sequence": "RRIRKRPPRLPRPRPRPCQPPRP", "shrunken log2 fold change": 0.227}, {"sequence": "RRIRKRPPRLPRPRPRPCRCPRP", "shrunken log2 fold change": 0.0976}, {"sequence": "RRIRKRPPRLPRPRPRPCRSPRP", "shrunken log2 fold change": -0.0126}, {"sequence": "RRIRKRPPRLPRPRPRPCTMPRP", "shrunken log2 fold change": -0.271}, {"sequence": "RRIRKRPPRLPRPRPRPCTWPRP", "shrunken log2 fold change": -0.15}, {"sequence": "RRIRKRPPRLPRPRPRPCVRPRP", "shrunken log2 fold change": -0.215}, {"sequence": "RRIRKRPPRLPRPRPRPCWCPRP", "shrunken log2 fold change": -0.0214}, {"sequence": "RRIRKRPPRLPRPRPRPCYGPRP", "shrunken log2 fold change": -0.237}, {"sequence": "RRIRKRPPRLPRPRPRPDALPRP", "shrunken log2 fold change": 0.132}, {"sequence": "RRIRKRPPRLPRPRPRPDARPRP", "shrunken log2 fold change": -0.0173}, {"sequence": "RRIRKRPPRLPRPRPRPDCPPRP", "shrunken log2 fold change": 0.178}, {"sequence": "RRIRKRPPRLPRPRPRPDDKPRP", "shrunken log2 fold change": 0.107}, {"sequence": "RRIRKRPPRLPRPRPRPDENPRP", "shrunken log2 fold change": 1.42}, {"sequence": "RRIRKRPPRLPRPRPRPDFEPRP", "shrunken log2 fold change": 0.0238}, {"sequence": "RRIRKRPPRLPRPRPRPDFYPRP", "shrunken log2 fold change": -0.0302}, {"sequence": "RRIRKRPPRLPRPRPRPDGMPRP", "shrunken log2 fold change": -0.00135}, {"sequence": "RRIRKRPPRLPRPRPRPDGQPRP", "shrunken log2 fold change": 0.0566}, {"sequence": "RRIRKRPPRLPRPRPRPDINPRP", "shrunken log2 fold change": 0.193}, {"sequence": "RRIRKRPPRLPRPRPRPDIQPRP", "shrunken log2 fold change": 0.867}, {"sequence": "RRIRKRPPRLPRPRPRPDIWPRP", "shrunken log2 fold change": 0.211}, {"sequence": "RRIRKRPPRLPRPRPRPDMMPRP", "shrunken log2 fold change": 1.43}, {"sequence": "RRIRKRPPRLPRPRPRPDNWPRP", "shrunken log2 fold change": 0.235}, {"sequence": "RRIRKRPPRLPRPRPRPDPKPRP", "shrunken log2 fold change": 0.549}, {"sequence": "RRIRKRPPRLPRPRPRPDRFPRP", "shrunken log2 fold change": -0.0614}, {"sequence": "RRIRKRPPRLPRPRPRPDRQPRP", "shrunken log2 fold change": 0.204}, {"sequence": "RRIRKRPPRLPRPRPRPDSCPRP", "shrunken log2 fold change": -0.0303}, {"sequence": "RRIRKRPPRLPRPRPRPDTHPRP", "shrunken log2 fold change": 0.234}, {"sequence": "RRIRKRPPRLPRPRPRPDVGPRP", "shrunken log2 fold change": 0.0262}, {"sequence": "RRIRKRPPRLPRPRPRPDWKPRP", "shrunken log2 fold change": -0.0149}, {"sequence": "RRIRKRPPRLPRPRPRPDWRPRP", "shrunken log2 fold change": 0.499}, {"sequence": "RRIRKRPPRLPRPRPRPEEHPRP", "shrunken log2 fold change": 2.61}, {"sequence": "RRIRKRPPRLPRPRPRPEEKPRP", "shrunken log2 fold change": 0.0431}, {"sequence": "RRIRKRPPRLPRPRPRPEEWPRP", "shrunken log2 fold change": -0.0212}, {"sequence": "RRIRKRPPRLPRPRPRPEFHPRP", "shrunken log2 fold change": 0.131}, {"sequence": "RRIRKRPPRLPRPRPRPEFSPRP", "shrunken log2 fold change": 0.397}, {"sequence": "RRIRKRPPRLPRPRPRPEGFPRP", "shrunken log2 fold change": 0.802}, {"sequence": "RRIRKRPPRLPRPRPRPEIEPRP", "shrunken log2 fold change": 2.58}, {"sequence": "RRIRKRPPRLPRPRPRPELQPRP", "shrunken log2 fold change": 0.307}, {"sequence": "RRIRKRPPRLPRPRPRPELYPRP", "shrunken log2 fold change": 0.0137}, {"sequence": "RRIRKRPPRLPRPRPRPEMCPRP", "shrunken log2 fold change": 1.1}]}]}
